Several values for one entry are separate records, joined by “and”; a condition that tells them apart may be missing. Identical values can stand only once.
How the values were obtained:
[1] = molecular target: SARS-CoV-2 spike on Omicron pseudovirus (GFP-expressing) (SARS-CoV-2 Omicron) (UniProt P0DTC2); test: flow cytometry, bead-bound aptamer
[2] = molecular target: SARS-CoV-2 spike on Omicron pseudovirus (GFP-expressing) (SARS-CoV-2 Omicron) (UniProt P0DTC2); test: flow cytometry, bead-bound aptamer; settings: 5' hexynyl-iSp18-iSp18-iSp18 (PEG spacer)

| Sequence | Kd ([1]; 5' hexynyl-iSp18-iSp18-iSp18 (PEG spacer)) [pM] | Kd [2] | Kd ([1]; 5' hexynyl) [pM] |
| --- | --- | --- | --- |
| ATCCAGAGTGACGCAGCACCGACCTTGTGCTTTGGGAGTGCTGGTCCAAGGGCGTTAATGGACACGGTGGCTTAGT [Omicron PEG36 Particle Aptamer] | 0.007 | 0.011 pM and 0.017 pM and 0.073 pM | – |
| TTTTTATCCAGAGTGACGCAGCACCGACCTTGTGCTTTGGGAGTGCTGGTCCAAGGGCGTTAATGGACACGGTGGCTTAGT [Omicron Particle Aptamer] | – | – | 0.01 |
